# T1: FcgRIIa R (human, UniProt P12318)
# T1 chain: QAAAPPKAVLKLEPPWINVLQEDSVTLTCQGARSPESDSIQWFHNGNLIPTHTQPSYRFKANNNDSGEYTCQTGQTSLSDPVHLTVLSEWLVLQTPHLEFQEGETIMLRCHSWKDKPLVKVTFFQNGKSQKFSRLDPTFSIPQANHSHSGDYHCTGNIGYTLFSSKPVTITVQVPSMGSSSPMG
# T2: FcgRIa (human, UniProt P12314)
# T2 chain: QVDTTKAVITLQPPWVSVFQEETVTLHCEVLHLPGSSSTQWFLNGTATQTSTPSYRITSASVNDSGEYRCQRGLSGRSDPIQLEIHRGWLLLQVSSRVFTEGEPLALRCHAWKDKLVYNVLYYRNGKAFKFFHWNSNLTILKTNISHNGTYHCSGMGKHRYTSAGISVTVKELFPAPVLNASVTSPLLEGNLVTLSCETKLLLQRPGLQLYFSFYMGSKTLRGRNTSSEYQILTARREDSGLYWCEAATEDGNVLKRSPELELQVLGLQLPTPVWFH
# T3: FcgRIIa H (human, UniProt P12318)
# T3 chain: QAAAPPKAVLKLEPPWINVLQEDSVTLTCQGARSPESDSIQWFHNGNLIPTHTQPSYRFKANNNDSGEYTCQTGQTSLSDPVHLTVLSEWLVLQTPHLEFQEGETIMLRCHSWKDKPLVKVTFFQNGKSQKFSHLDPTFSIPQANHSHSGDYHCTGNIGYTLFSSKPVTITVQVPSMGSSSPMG
# T4: FcgRIIb (human, UniProt P31994)
# T4 chain: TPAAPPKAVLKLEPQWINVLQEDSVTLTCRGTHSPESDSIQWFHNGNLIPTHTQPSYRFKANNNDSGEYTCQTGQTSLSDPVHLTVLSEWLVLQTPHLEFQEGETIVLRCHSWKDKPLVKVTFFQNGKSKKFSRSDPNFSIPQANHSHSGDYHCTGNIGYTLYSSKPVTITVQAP
# Key:
# Assay in all cases: SPR
# FcgRIIa R = biological target: T1, FcgRIIa R
# FcgRIa = biological target: T2, FcgRIa
# FcgRIIa H = biological target: T3, FcgRIIa H
# FcgRIIIa F = FcgRIIIa F (human, UniProt P08637)
# FcgRIIIa V = FcgRIIIa V (human, UniProt P08637)
# FcgRIIb = biological target: T4, FcgRIIb
# Sequence of FcgRIIIa V (P08637 17-208 F176V): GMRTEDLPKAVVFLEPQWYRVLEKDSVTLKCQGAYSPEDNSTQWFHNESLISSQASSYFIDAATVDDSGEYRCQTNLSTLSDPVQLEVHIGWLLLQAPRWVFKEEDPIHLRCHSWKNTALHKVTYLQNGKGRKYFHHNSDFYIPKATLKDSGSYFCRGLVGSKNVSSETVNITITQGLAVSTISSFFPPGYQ
# Sequence of FcgRIIIa F (P08637 17-208): as the sequence (P08637 17-208 F176V) above, with V160F counted along it
Binder,Kd (FcgRIIa R) [nM],Kd (FcgRIa) [nM],Kd (FcgRIIa H) [nM],Kd (FcgRIIIa F) [nM],Kd (FcgRIIIa V) [nM],Kd (FcgRIIb) [nM]
H240-Kn120/H240-Hl089/L73-k0 (antibody) chain 1: QDQLVQSGAEVKKPGASVKVSCKASGFNIKDTYIQWVRQAPGQGLEWMGRIDPLRKQTKYREKFEGRVTITADTSTNTAYMELSSLRSEDTAVYYCVRSGREFDYWGQGTLVTVSSASTKGPSVFPLAPSSKSTSGGTAALGCLVKDYFPEPVTVSWNSGALTSGVHTFPAVLQSSGLYSLSSVVTVPSSSLGTQTYICNVNHKPSNTKVDKKVEPKSCDKTHTCPPCPAPEYYWGPMVFLFPPKPKDTLMISRTPEVTCVVVDVSDEDPEVKFNWYVDGVEVHNAKTKPREEQYNATYRVVSVLTVLHQDWLNGKEYKCKVSNKDLPAPIEKTISKAKGQPREPQVCTLPPSRDELTKNQVSLWCLVKGFYPSDIAVEWESNGQPENNYKTTPPVLDSDGSFFLYSKLTVDKSRWQQGNVFSCSVMHEALHNHYTQKSLSLSP chain 2: QDQLVQSGAEVKKPGASVKVSCKASGFNIKDTYIQWVRQAPGQGLEWMGRIDPLRKQTKYREKFEGRVTITADTSTNTAYMELSSLRSEDTAVYYCVRSGREFDYWGQGTLVTVSSASTKGPSVFPLAPSSKSTSGGTAALGCLVKDYFPEPVTVSWNSGALTSGVHTFPAVLQSSGLYSLSSVVTVPSSSLGTQTYICNVNHKPSNTKVDKKVEPKSCDKTHTCPPCPAPELLTGPSVFLFPPKPKDTLMISRTPEVTCVVVDVSHEEPEVKFNWYVDGVEVHNAKTKPREEQYNSTYRVVSVLTVLHQDWLNGKEYKCKVSNDALPKPIEETISKAKGQPREPQVYTLPPSRCELTKNQVSLSCAVKGFYPSDIAVEWESNGQPENNYKTTPPVLDSDGSFFLVSKLTVDKSRWQQGNVFSCSVMHEALHNHYTQKSLSLSP chain 3: DIQMTQSPSSLSASVGDRVTITCRASQDIHKYIAWYQQKPGQAPRLLIQYTSTLQPGVPSRFSGSGSGTDYTFTISSLQPEDIATYYCLQYEQLRTFGGGTKVEIKRTVAAPSVFIFPPSDEQLKSGTASVVCLLNNFYPREAKVQWKVDNALQSGNSQESVTEQDSKDSTYSLSSTLTLSKADYEKHKVYACEVTHQGLSSPVTKSFNRGEC,14,0.18,41,12,5.4,190
H240-Kn120/H240-Hl085/L73-k0 (antibody) chain 1: QDQLVQSGAEVKKPGASVKVSCKASGFNIKDTYIQWVRQAPGQGLEWMGRIDPLRKQTKYREKFEGRVTITADTSTNTAYMELSSLRSEDTAVYYCVRSGREFDYWGQGTLVTVSSASTKGPSVFPLAPSSKSTSGGTAALGCLVKDYFPEPVTVSWNSGALTSGVHTFPAVLQSSGLYSLSSVVTVPSSSLGTQTYICNVNHKPSNTKVDKKVEPKSCDKTHTCPPCPAPEYYWGPMVFLFPPKPKDTLMISRTPEVTCVVVDVSDEDPEVKFNWYVDGVEVHNAKTKPREEQYNATYRVVSVLTVLHQDWLNGKEYKCKVSNKDLPAPIEKTISKAKGQPREPQVCTLPPSRDELTKNQVSLWCLVKGFYPSDIAVEWESNGQPENNYKTTPPVLDSDGSFFLYSKLTVDKSRWQQGNVFSCSVMHEALHNHYTQKSLSLSP chain 2: QDQLVQSGAEVKKPGASVKVSCKASGFNIKDTYIQWVRQAPGQGLEWMGRIDPLRKQTKYREKFEGRVTITADTSTNTAYMELSSLRSEDTAVYYCVRSGREFDYWGQGTLVTVSSASTKGPSVFPLAPSSKSTSGGTAALGCLVKDYFPEPVTVSWNSGALTSGVHTFPAVLQSSGLYSLSSVVTVPSSSLGTQTYICNVNHKPSNTKVDKKVEPKSCDKTHTCPPCPAPELLVGPSVFLFPPKPKDTLMISRTPEVTCVVVDVSHEEPEVKFNWYVDGVEVHNAKTKPREEQYNSTYRVVSVLTVLHQDWLNGKEYKCKVSNDALPKPIEETISKAKGQPREPQVYTLPPSRCELTKNQVSLSCAVKGFYPSDIAVEWESNGQPENNYKTTPPVLDSDGSFFLVSKLTVDKSRWQQGNVFSCSVMHEALHNHYTQKSLSLSP chain 3: DIQMTQSPSSLSASVGDRVTITCRASQDIHKYIAWYQQKPGQAPRLLIQYTSTLQPGVPSRFSGSGSGTDYTFTISSLQPEDIATYYCLQYEQLRTFGGGTKVEIKRTVAAPSVFIFPPSDEQLKSGTASVVCLLNNFYPREAKVQWKVDNALQSGNSQESVTEQDSKDSTYSLSSTLTLSKADYEKHKVYACEVTHQGLSSPVTKSFNRGEC,19,87,46,23,6.2,390

# More lines, in order of falling Kd (FcgRIIa R), values ahead:
Kd (FcgRIIa R) [nM],Kd (FcgRIa) [nM],Kd (FcgRIIa H) [nM],Kd (FcgRIIIa F) [nM],Kd (FcgRIIIa V) [nM],Kd (FcgRIIb) [nM],Binder
26,0.3,41,4.8,0.98,260,H240-Kn179/H240-Hl068/L73-k0 (antibody) chain 1: QDQLVQSGAEVKKPGASVKVSCKASGFNIKDTYIQWVRQAPGQGLEWMGRIDPLRKQTKYREKFEGRVTITADTSTNTAYMELSSLRSEDTAVYYCVRSGREFDYWGQGTLVTVSSASTKGPSVFPLAPSSKSTSGGTAALGCLVKDYFPEPVTVSWNSGALTSGVHTFPAVLQSSGLYSLSSVVTVPSSSLGTQTYICNVNHKPSNTKVDKKVEPKSCDKTHTCPPCPAPEYYWGPMVFLFPPKPKDTLMISRTPEVTCVVVDVSDEDPEVKFNWYVDGVEVHNAKTKPREKQYNATYRVVSVLTVLHQDWLNGKEYKCKVSNKDLPAPIEKTISKAKGQPREPQVCTLPPSRDELTKNQVSLWCLVKGFYPSDIAVEWESNGQPENNYKTTPPVLDSDGSFFLYSKLTVDKSRWQQGNVFSCSVMHEALHNHYTQKSLSLSP chain 2: QDQLVQSGAEVKKPGASVKVSCKASGFNIKDTYIQWVRQAPGQGLEWMGRIDPLRKQTKYREKFEGRVTITADTSTNTAYMELSSLRSEDTAVYYCVRSGREFDYWGQGTLVTVSSASTKGPSVFPLAPSSKSTSGGTAALGCLVKDYFPEPVTVSWNSGALTSGVHTFPAVLQSSGLYSLSSVVTVPSSSLGTQTYICNVNHKPSNTKVDKKVEPKSCDKTHTCPPCPAPELLGGPSVFLFPPKPKDTLMISRTPEVTCVVVDVSHEEPEVKFNWYVDGVEVHNAKTKPREEQYNSTYRVVSVLTVLHQDWLNGKEYKCKVSNDALPKPIEETISKAKGQPREPQVYTLPPSRCELTKNQVSLSCAVKGFYPSDIAVEWESNGQPENNYKTTPPVLDSDGSFFLVSKLTVDKSRWQQGNVFSCSVMHEALHNHYTQKSLSLSP chain 3: DIQMTQSPSSLSASVGDRVTITCRASQDIHKYIAWYQQKPGQAPRLLIQYTSTLQPGVPSRFSGSGSGTDYTFTISSLQPEDIATYYCLQYEQLRTFGGGTKVEIKRTVAAPSVFIFPPSDEQLKSGTASVVCLLNNFYPREAKVQWKVDNALQSGNSQESVTEQDSKDSTYSLSSTLTLSKADYEKHKVYACEVTHQGLSSPVTKSFNRGEC
15,< 0.028,21,8.2,1.8,210,H240-Kn120/H240-Hl073/L73-k0 (antibody) chain 1: QDQLVQSGAEVKKPGASVKVSCKASGFNIKDTYIQWVRQAPGQGLEWMGRIDPLRKQTKYREKFEGRVTITADTSTNTAYMELSSLRSEDTAVYYCVRSGREFDYWGQGTLVTVSSASTKGPSVFPLAPSSKSTSGGTAALGCLVKDYFPEPVTVSWNSGALTSGVHTFPAVLQSSGLYSLSSVVTVPSSSLGTQTYICNVNHKPSNTKVDKKVEPKSCDKTHTCPPCPAPEYYWGPMVFLFPPKPKDTLMISRTPEVTCVVVDVSDEDPEVKFNWYVDGVEVHNAKTKPREEQYNATYRVVSVLTVLHQDWLNGKEYKCKVSNKDLPAPIEKTISKAKGQPREPQVCTLPPSRDELTKNQVSLWCLVKGFYPSDIAVEWESNGQPENNYKTTPPVLDSDGSFFLYSKLTVDKSRWQQGNVFSCSVMHEALHNHYTQKSLSLSP chain 2: QDQLVQSGAEVKKPGASVKVSCKASGFNIKDTYIQWVRQAPGQGLEWMGRIDPLRKQTKYREKFEGRVTITADTSTNTAYMELSSLRSEDTAVYYCVRSGREFDYWGQGTLVTVSSASTKGPSVFPLAPSSKSTSGGTAALGCLVKDYFPEPVTVSWNSGALTSGVHTFPAVLQSSGLYSLSSVVTVPSSSLGTQTYICNVNHKPSNTKVDKKVEPKSCDKTHTCPPCPAPELLSGPSVFLFPPKPKDTLMISRTPEVTCVVVDVSHEEPEVKFNWYVDGVEVHNAKTKPREEQYNSTYRVVSVLTVLHQDWLNGKEYKCKVSNDALPKPIEETISKAKGQPREPQVYTLPPSRCELTKNQVSLSCAVKGFYPSDIAVEWESNGQPENNYKTTPPVLDSDGSFFLVSKLTVDKSRWQQGNVFSCSVMHEALHNHYTQKSLSLSP chain 3: DIQMTQSPSSLSASVGDRVTITCRASQDIHKYIAWYQQKPGQAPRLLIQYTSTLQPGVPSRFSGSGSGTDYTFTISSLQPEDIATYYCLQYEQLRTFGGGTKVEIKRTVAAPSVFIFPPSDEQLKSGTASVVCLLNNFYPREAKVQWKVDNALQSGNSQESVTEQDSKDSTYSLSSTLTLSKADYEKHKVYACEVTHQGLSSPVTKSFNRGEC

# From patent US10766960 (dated 2020)
